Source: patent US8580497B2, “Methods for detection of the oncogenic T1796A B-Raf mutation” (The Wellcome Trust, priority 2001, dated 2013)
Values belong to the compound of their own block, whether it stands above or below them.

Experiments:
ERK in WM266.4 cells = assay: ERK activity, Western blot with ppERK antibody; format: cell-based, human; details: compound at 10 μM
Method: FIG. 3B. Inhibition of ERK in melanoma cell lines using pharmacological reagents. WM266.4 or A375P cells were treated with 10 μM U0126, 10 μM BAY 43-9006 or DMSO as a control. Equivalent amounts of cellular proteins were resolved on SDS-gels and the levels of active ERK were determined using the ppERK antibody.
FIG. 6. Ablation of BRAF, but not CRAF blocks ERK activity in melanoma cells. WM-266.4 or Colo 829 cells were treated with a BRAF specific siRNA probe (BRAF), or the scrambled control (sBRAF), or a CRAF specific probe (CRAF), or its scrambled control (sCRAF), or oligofectamine (oligo) or left untreated (control) as indicated. The cells were incubated for the times indicated, and the Colo 829 cells were treated for 24 hours. The levels of ERK activity in equivalent amounts of cell extract was determined by Western blotting with the ppERK antibody.
In order to validate BRAF as a target in cancer, it is first tested whether the growth of cells that express activated, mutant forms of BRAF required the RAF-MEK-ERK signaling pathway for growth. To this end, melanoma and colorectal cell lines that harbour mutations in the BRAF gene are treated with pharmacological agents that block signaling through this pathway. Two compounds are tested. One is the compound U0126, which is a MEK inhibitor and which therefore uncouples RAF-ERK signaling in cells (Sebolt-Leopold et al., 1999). […]

SK-MEL-28 = details: SK-MEL-28, melanoma, B-Raf V599E
Source text: (§1) The second approach is to examine the effects of the compound U0126, an inhibitor of MEK1/2, the only known substrates for B-Raf.

ERK in WM-266-4/WM-115 = details: WM-266-4/WM-115, melanoma, B-Raf V599D
Source text: as §1

ERK in SK-MEL-28 = details: SK-MEL-28, melanoma, B-Raf V599E
Source text: as §1

ERK in Mawi = details: colorectal, Ras wt, B-Raf V599E
Source text: as §1

WM-266-4/WM-115 = details: WM-266-4/WM-115, melanoma, B-Raf V599D
Source text: as §1

cellular Ras (human) = assay: cell-based or functional assay

Compound: CNC(=O)c1cc(Oc2ccc(NC(=O)Nc3ccc(Cl)c(C(F)(F)F)c3)cc2)ccn1 [BAY 43-9006]
ERK activity (ppERK Western blot) (ERK in WM266.4 cells): strongly suppressed

Compound: N#CC(=C(/N)Sc1ccccc1N)/C(C#N)=C(\N)Sc1ccccc1N [U0126]
U0 inhibit S (SK-MEL-28): 98%
UO/ ERK-inhib (ERK in WM-266-4/WM-115): >90%
UO/ ERK-inhib (ERK in SK-MEL-28): >90%
UO/ ERK-inhib (ERK in Mawi): >90%
U0 inhibit S (WM-266-4/WM-115): >99%
ERK activity (ppERK Western blot) (ERK in WM266.4 cells): strongly suppressed

Compound: G463V B-Raf (myc-epitope tagged)
^V12Ras stimulated kinase activity of B-Raf (immunoprecipitation kinase cascade assay, GST-MEK, GST-ERK and MBP as sequential substrates) (oncogenic Ras (V12Ras)): All five mutants are stimulated by oncogenic Ras (^V12Ras). However, the fold activation for each of the mutants is reduced compared with wild-type B-Raf

Compound: G468A B-Raf (myc-epitope tagged)
^V12Ras stimulated kinase activity of B-Raf (immunoprecipitation kinase cascade assay, GST-MEK, GST-ERK and MBP as sequential substrates) (oncogenic Ras (V12Ras)): All five mutants are stimulated by oncogenic Ras (^V12Ras). However, the fold activation for each of the mutants is reduced compared with wild-type B-Raf

Compound: G595R B-Raf (myc-epitope tagged)
^V12Ras stimulated kinase activity of B-Raf (immunoprecipitation kinase cascade assay, GST-MEK, GST-ERK and MBP as sequential substrates) (oncogenic Ras (V12Ras)): ^G595RB-Raf is also stimulated by ^V12Ras, but the activation was very weak, probably due to the low starting levels

Compound: L596V B-Raf (myc-epitope tagged)
^V12Ras stimulated kinase activity of B-Raf (immunoprecipitation kinase cascade assay, GST-MEK, GST-ERK and MBP as sequential substrates) (oncogenic Ras (V12Ras)): All five mutants are stimulated by oncogenic Ras (^V12Ras). However, the fold activation for each of the mutants is reduced compared with wild-type B-Raf

Compound: V599E B-Raf (myc-epitope tagged)
^V12Ras stimulated kinase activity of B-Raf (immunoprecipitation kinase cascade assay, GST-MEK, GST-ERK and MBP as sequential substrates) (oncogenic Ras (V12Ras)): the fold activation for each of the mutants is reduced compared with wild-type B-Raf (See FIG. 1A, B) and is particularly small in the case of ^V599EB-Raf

Y13-259 S-phase inhibition (percentage of cells that do not incorporate BrdU) after micro-injection; A2058 melanoma cells, Ras status blank, B-Raf V599E (cellular Ras (human)): 0%
Y13-259 S-phase inhibition (percentage of cells that do not incorporate BrdU) after micro-injection; CaCO2 colorectal cells, Ras wt, B-Raf wt (cellular Ras (human)): 60%
Y13-259 S-phase inhibition (percentage of cells that do not incorporate BrdU) after micro-injection; DLD1 colorectal cells, Ras K13Asp/wt, B-Raf wt (cellular Ras (human)): 40%
Y13-259 S-phase inhibition (percentage of cells that do not incorporate BrdU) after micro-injection; HCT-116 colorectal cells, Ras K13 Asp, B-Raf wt (cellular Ras (human)): 95%
Y13-259 S-phase inhibition (percentage of cells that do not incorporate BrdU) after micro-injection; HMV11-Riken melanoma cells, Ras status blank, B-Raf wt (cellular Ras (human)): 100%
Y13-259 S-phase inhibition (percentage of cells that do not incorporate BrdU) after micro-injection; HT29 colorectal cells, Ras wt, B-Raf V599E (cellular Ras (human)): 15%
Y13-259 S-phase inhibition (percentage of cells that do not incorporate BrdU) after micro-injection; JW2 colorectal cells, Ras K12, B-Raf wt (cellular Ras (human)): 79%
Y13-259 S-phase inhibition (percentage of cells that do not incorporate BrdU) after micro-injection; LS174T colorectal cells, Ras K12Asp/wt, B-Raf wt (cellular Ras (human)): 84%
Y13-259 S-phase inhibition (percentage of cells that do not incorporate BrdU) after micro-injection; LS411N colorectal cells, Ras status blank, B-Raf V599E (first value) (cellular Ras (human)): 0%
Y13-259 S-phase inhibition (percentage of cells that do not incorporate BrdU) after micro-injection; LS411N colorectal cells, Ras status blank, B-Raf V599E (second value) (cellular Ras (human)): 0%
Y13-259 S-phase inhibition (percentage of cells that do not incorporate BrdU) after micro-injection; Malme melanoma cells, Ras status blank, B-Raf V599E (cellular Ras (human)): 0%
Y13-259 S-phase inhibition (percentage of cells that do not incorporate BrdU) after micro-injection; Mawi colorectal cells, Ras wt, B-Raf V599E (cellular Ras (human)): 5%
Y13-259 S-phase inhibition (percentage of cells that do not incorporate BrdU) after micro-injection; NCI-H2087 NSCLC cell line pair, Ras onc, B-Raf L596V (cellular Ras (human)): 77%
Y13-259 S-phase inhibition (percentage of cells that do not incorporate BrdU) after micro-injection; SK-MEL-28 melanoma cells, Ras b, B-Raf V599E (cellular Ras (human)): 4%
Y13-259 S-phase inhibition (percentage of cells that do not incorporate BrdU) after micro-injection; SK-Mel2 melanoma cells, Ras status blank, B-Raf wt (cellular Ras (human)): 70%
Y13-259 S-phase inhibition (percentage of cells that do not incorporate BrdU) after micro-injection; SW480 colorectal cells, Ras K12, B-Raf wt (cellular Ras (human)): 57%
Y13-259 S-phase inhibition (percentage of cells that do not incorporate BrdU) after micro-injection; SW620 colorectal cells, Ras onc, B-Raf wt (cellular Ras (human)): 92%
Y13-259 S-phase inhibition (percentage of cells that do not incorporate BrdU) after micro-injection; WM-266-4/WM-115 melanoma cells, Ras b, B-Raf V599D (cellular Ras (human)): 10%
Y13-259 S-phase inhibition (percentage of cells that do not incorporate BrdU) after micro-injection; colo205 colorectal cells, Ras wt, B-Raf V599E (cellular Ras (human)): 3%
Y13-259 S-phase inhibition (percentage of cells that do not incorporate BrdU) after micro-injection; colo741 colorectal cells, Ras status blank, B-Raf V599E (cellular Ras (human)): 0%
Compound: monoclonal antibody Y13-259
